We go through 27 molecules from patent publication US20240066131A1 (Protagonist Therapeutics, Inc., priority 2020, published 2024).

Starred links: 1 amine or outer side, 2 acyl side, 3 side chain; linkers in the order of their positions; H or OH if unused. Non-standard residues stand in square brackets, D forms with d. Residues, ends and D or L forms follow the SMILES beside them. Groups on a side chain read outwards from the residue. No end group written: not given here. *: point of attachment. N_Butyl_Phe = CCCCN([C@@H](Cc1ccccc1)C(=O)[*:2])[*:1]; Gly(N-CH2CH2-imidazol-4-yl) = O=C(O)CNCCc1c[nH]cn1; C18 diacid = O=C(O)CCCCCCCCCCCCCCCCC(=O)*; Dip = N[C@H](C(=O)O)C(c1ccccc1)c1ccccc1; γGlu = O=C(O)[C@H](CCC(=O)[*:2])N[*:1]; His(τ-Me) = Cn1cnc(C[C@H](N)C(=O)O)c1; Palmitoyl = CCCCCCCCCCCCCCCC(=O)*; Myristoyl = CCCCCCCCCCCCCC(=O)*; β3hF = N[C@H](CC(=O)O)Cc1ccccc1; NMeK = CN[C@@H](CCCCN)C(=O)O; PEG4 = NCCOCCOCCOCCOCCC(=O)O; Lauroyl = CCCCCCCCCCCC(=O)*; Isovaleryl = CC(C)CC(=O)*; AEEA = NCCOCCOCC(=O)O; NHBn = c1ccc(CN*)cc1; Propionyl = CCC(=O)*; Ahx = NCCCCCC(=O)O; βAla = NCCC(=O)O

The first experiment concerns the target T1, ferroportin (Homo sapiens, UniProt Q9NP59).
T1 sequence (Q9NP59 1-571): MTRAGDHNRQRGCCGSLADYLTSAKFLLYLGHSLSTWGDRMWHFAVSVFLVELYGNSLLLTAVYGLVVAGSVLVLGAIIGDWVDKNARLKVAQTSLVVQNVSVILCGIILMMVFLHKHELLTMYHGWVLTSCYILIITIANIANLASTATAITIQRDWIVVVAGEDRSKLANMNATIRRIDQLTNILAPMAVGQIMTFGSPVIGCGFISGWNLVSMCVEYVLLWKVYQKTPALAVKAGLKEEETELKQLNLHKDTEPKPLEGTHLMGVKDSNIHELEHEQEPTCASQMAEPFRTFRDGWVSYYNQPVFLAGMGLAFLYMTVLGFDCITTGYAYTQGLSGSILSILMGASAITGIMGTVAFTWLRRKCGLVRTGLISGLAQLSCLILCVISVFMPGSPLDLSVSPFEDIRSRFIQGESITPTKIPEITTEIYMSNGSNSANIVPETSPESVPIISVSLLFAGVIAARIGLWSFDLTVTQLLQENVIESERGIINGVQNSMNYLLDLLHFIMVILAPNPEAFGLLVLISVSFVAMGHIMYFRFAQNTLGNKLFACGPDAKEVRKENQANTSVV
Briefly: FPN activity assay: internalization/degradation of ferroportin-GFP in stably transfected HEK293 cells (loss of GFP fluorescence). In kind it is cell-based. Conditions: Table 6A; read-out: FPN EC50. The procedure: Following internalization, the ferroporin protein is degraded.
A retro inverse peptide is a peptide with a reversed sequence in all D amino acids. An example is that Hy-Glu-Thr-His-NH2 becomes Hy-DHis-DThr-DGlu-NH2. The EC50 of these reference compounds for ferroportin internalization/degradation was determined according to the FPN activity assay described above. These peptides served as control standards.
With `CCCCCCCCCCCC(=O)NCCCCCC(=O)NCCCC[C@H](NC(=O)[C@@H](NC(=O)[C@H](C)NC(=O)[C@@H]1CCCN1C(=O)[C@@H](NC(=O)[C@H](Cc1c[nH]cn1)NC(=O)[C@@H](NC(=O)[C@H](CCC(=O)O)NC(=O)CC(C)C)[C@@H](C)O)C(c1ccccc1)c1ccccc1)[C@@H](C)CC)C(=O)N[C@H](CC(N)=O)Cc1ccccc1` [compound 105] (Isovaleryl-ETH[Dip]PAIK([Ahx-Lauroyl])[β3hF]-NH2), the DC50 was found to be 109 nM.
Regarding `CCCCCCCCCCCCCCCC(=O)NCCCCCC(=O)NCCCC[C@H](NC(=O)C[C@H](Cc1ccccc1)NC(=O)[C@@H](CCCCN)NC(=O)[C@@H](NC(=O)[C@H](C)NC(=O)[C@@H]1CCCN1C(=O)[C@@H](NC(=O)[C@H](Cc1c[nH]cn1)NC(=O)[C@@H](NC(=O)[C@H](CCC(=O)O)NC(=O)CC(C)C)[C@@H](C)O)C(c1ccccc1)c1ccccc1)[C@@H](C)CC)C(N)=O` [compound 3] (Isovaleryl-ETH[Dip]PAI[dK][β3hF]K([Ahx-Palmitoyl])-NH2), the DC50 amounted to 24.9 nM.
In the case of `CCCCCCCCCCCCCCCC(=O)NCCCCCC(=O)NCCCC[C@H](NC(=O)[C@@H](NC(=O)[C@H](C)NC(=O)[C@@H]1CCCN1C(=O)[C@@H](NC(=O)[C@H](Cc1cn(C)cn1)NC(=O)[C@@H](NC(=O)[C@H](CC(C)C)NC(=O)CC(C)C)[C@@H](C)O)C(c1ccccc1)c1ccccc1)[C@@H](C)CC)C(=O)N[C@H](CC(N)=O)Cc1ccccc1` [compound 45] (Isovaleryl-LT[His(τ-Me)][Dip]PAIK([Ahx-Palmitoyl])[β3hF]-NH2), the DC50 was over 3000 nM.
For `CCCCCCCCCCCCCCCC(=O)NCCCCCC(=O)NCCCC[C@H](NC(=O)[C@@H](NC(=O)[C@H](C)NC(=O)[C@@H]1CCCN1C(=O)[C@@H](NC(=O)CN(CCc1c[nH]cn1)C(=O)[C@@H](NC(=O)[C@H](CCC(=O)O)NC(=O)CC(C)C)[C@@H](C)O)C(c1ccccc1)c1ccccc1)[C@@H](C)CC)C(=O)N[C@H](CC(N)=O)Cc1ccccc1` [compound 88] (Isovaleryl-ET[Gly(N-CH2CH2-imidazol-4-yl)][Dip]PAIK([Ahx-Palmitoyl])[β3hF]-NH2), the DC50 is over 3000 nM.
Take `CCCCCCCCCCCCCCCC(=O)NCCOCCOCCOCCOCCC(=O)NCCCC[C@H](NC(=O)[C@@H](NC(=O)[C@H](C)NC(=O)[C@@H]1CCCN1C(=O)[C@@H](NC(=O)[C@H](Cc1c[nH]cn1)NC(=O)[C@@H](NC(=O)[C@H](CCC(=O)O)NC(=O)CC(C)C)[C@@H](C)O)C(c1ccccc1)c1ccccc1)[C@@H](C)CC)C(=O)N[C@H](CC(N)=O)Cc1ccccc1` [compound 95] (Isovaleryl-ETH[Dip]PAIK([PEG4-Palmitoyl])[β3hF]-NH2): the DC50 was 32.7 nM.
Regarding `CCCCCCCCCCCCCCCC(=O)NCCCCCC(=O)NCCCC[C@H](NC(=O)C[C@H](Cc1ccccc1)NC(=O)[C@H](CCCCN)N(C)C(=O)[C@@H](NC(=O)[C@H](C)NC(=O)[C@@H]1CCCN1C(=O)[C@@H](NC(=O)[C@H](Cc1c[nH]cn1)NC(=O)[C@@H](NC(=O)[C@H](CC(C)C)NC(=O)CC(C)C)[C@@H](C)O)C(c1ccccc1)c1ccccc1)[C@@H](C)CC)C(N)=O` [compound 46] (Isovaleryl-LTH[Dip]PAI[NMeK][β3hF]K([Ahx-Palmitoyl])-NH2), the DC50 was 103 nM.

Staying with this experiment, now noted: ferroportin-GFP HEK293 cells, compound incubated at least 18 hours; read-out: FPN IC50.
Take `CCCCCCCCCCCC(=O)NCCCCCC(=O)NCCCC[C@H](NC(=O)[C@@H](NC(=O)[C@H](C)NC(=O)[C@@H]1CCCN1C(=O)[C@H](Cc1ccccc1)NC(=O)[C@H](Cc1c[nH]cn1)NC(=O)[C@@H](NC(=O)[C@H](CCC(=O)O)NC(=O)CC(C)C)[C@@H](C)O)[C@@H](C)CC)C(=O)N[C@@H](Cc1ccccc1)C(=O)N[C@@H](CCC(=O)O)C(=O)N1CCC[C@H]1C(=O)N[C@@H](CCCNC(=N)N)C(=O)N[C@@H](CO)C(=O)N[C@@H](CCCCN)C(=O)NCC(=O)N[C@@H](C)C(=O)N[C@@H](CCCCN)C(N)=O` [compound 243] (Isovaleryl-ETHFPAIK([Ahx-Lauroyl])FEPRSKGAK-NH2): the DC50 amounted to 1070 nM.
Still for that read-out and setting: for `CCCCCCCCCCCCCC(=O)NCCCCCC(=O)NCCCC[C@H](NC(=O)[C@@H](NC(=O)[C@H](C)NC(=O)[C@@H]1CCCN1C(=O)[C@H](Cc1ccccc1)NC(=O)[C@H](Cc1c[nH]cn1)NC(=O)[C@@H](NC(=O)[C@H](CCC(=O)O)NC(=O)CC(C)C)[C@@H](C)O)[C@@H](C)CC)C(=O)N[C@@H](Cc1ccccc1)C(=O)N[C@@H](CCC(=O)O)C(=O)N1CCC[C@H]1C(=O)N[C@@H](CCCNC(=N)N)C(=O)N[C@@H](CO)C(=O)N[C@@H](CCCCN)C(=O)NCC(=O)N[C@@H](C)C(=O)N[C@H](CCCCN)C(N)=O` [compound 245] (Isovaleryl-ETHFPAIK([Ahx-Myristoyl])FEPRSKGA[dK]-NH2) the value was 1160 nM; for `CC(C)CC(=O)N[C@@H](CC(C)C)C(=O)N[C@H](C(=O)N[C@@H](Cc1c[nH]cn1)C(=O)N[C@H](C(=O)N[C@@H](CCCCNC(=O)COCCOCCNC(=O)COCCOCCNC(=O)CC[C@H](NC(=O)CCCCCCCCCCCCCCCCC(=O)O)C(=O)O)C(=O)NCc1ccccc1)C(c1ccccc1)c1ccccc1)[C@@H](C)O` [compound 227] (Isovaleryl-LTH[Dip]K([AEEA-AEEA-γGlu-C18 diacid])-NHBn), over 3000 nM.

In a further experiment the target is T2, human ferroportin (SLC40A1) fused in frame with GFP, stably expressed in HEK293 cells (human, UniProt Q9NP59 1-571).
T2 sequence (looked up): T1 sequence (Q9NP59 1-571)
The experiment is described as follows: cell-based or functional assay.
Conditions: not given
As to Cyclohexanoic_Acid-LTH[Dip]PK([Ahx-Palmitoyl])[N_Butyl_Phe] [Cyclohexanoic_Acid-L-T-H-[Dpa]-P-[Lys(Ahx_Palm)]-N_Butyl_Phe], the “FPN IC50” value was 3380 nM.
Turning to Isovaleryl-ETHFPAIK([γGlu-Myristoyl])FEPR[dS]-NH2 [Isovaleric Acid-E-T-H-F-P-A-I-[Lys(IsoGlu_C14_acid)]-F-E-P-R-[(D)Ser]-NH2], the “FPN IC50” value amounted to 3680 nM.
Propionyl-LTH[Dip]PK([Ahx-Palmitoyl])[N_Butyl_Phe] [[Propionic_acid]-L-T-H-[Dpa]-P-[Lys(Ahx_Palm)]-N_Butyl_Phe]: the “FPN IC50” value was 218 nM.
In the case of Isovaleryl-LTH[Dip]PK([γGlu-Palmitoyl])[N_Butyl_Phe] [Isovaleric Acid-L-T-H-[Dpa]-P-[Lys(IsoGlu_Palm)]-N_Butyl_Phe], the “FPN IC50” value was determined as 222 nM.
For the molecule Octanoic_Acid-LTH[Dip]PK([Ahx-Palmitoyl])-N_Butyl_Phe [Octanoic_Acid-L-T-H-[Dpa]-P-[Lys(Ahx_Palm)]-N_Butyl_Phe], the “FPN IC50” value was found to be 1020 nM.
Cyclohexanecarboxylic_Acid-LTH[Dip]PK([Ahx-Palmitoyl])[N_Butyl_Phe] [Cyclohexanecarboxylic_Acid-L-T-H-[Dpa]-P-[Lys(Ahx_Palm)]-N_Butyl_Phe]: the “FPN IC50” value was determined as 3300 nM.
Take Isovaleryl-LTH[Dip]P[N_Butyl_Phe] [Isovaleric Acid-L-T-H-[Dpa]-P-N_Butyl_Phe]: the “FPN IC50” value came out at 1040 nM.
Turning to Isovaleryl-[meL]TH[Dip]P[NMeK]([Ahx-Palmitoyl])-N_Butyl_Phe [Isovaleric Acid-meL-T-H-[Dpa]-P-NMe[Lys(Ahx_Palm)]-N_Butyl_Phe], the “FPN IC50” value came to 71 nM.
As for Heptanoic_Acid-LTH[Dip]PK([Ahx-Palmitoyl])[N_Butyl_Phe] [Heptanoic_Acid-L-T-H-[Dpa]-P-[Lys(Ahx_Palm)]-N_Butyl_Phe], the “FPN IC50” value was over 3000 nM.
Regarding Isovaleryl-LTH[Dip]K([Ahx-Palmitoyl])[N_Butyl_Phe] [Isovaleric Acid-L-T-H-[Dpa]-[Lys(Ahx_Palm)]-N_Butyl_Phe], the “FPN IC50” value is over 3000 nM.
For Isovaleryl-LTH[Dip]PK([AEEA-AEEA-γGlu-C18 diacid])[N_Ethyl_Nap] [Isovaleric Acid-L-T-H-[Dpa]-P-[Lys(1PEG2_1PEG2_IsoGlu_C18_Diacid)]-N_Ethyl_Nap], the “FPN IC50” value was determined as 1440 nM.
Consider Isovaleryl-ETHFPAIK([γGlu-C10 acid])FEPRSKGAK-NH2 [Isovaleric Acid-E-T-H-F-P-A-I-[Lys(IsoGlu_C10_acid)]-F-E-P-R-S-K-G-A-K-NH2], for which the “FPN IC50” value was found to be 3310 nM.
Turning to Isovaleryl-ETHFPAIK([γGlu-C12 acid])FEPRSKGAK-NH2 [Isovaleric Acid-E-T-H-F-P-A-I-[Lys(IsoGlu_C12_acid)]-F-E-P-R-S-K-G-A-K-NH2], the “FPN IC50” value worked out at 4490 nM.
As for Isovaleryl-LTH[Dip]P[NMeK]([Ahx-Palmitoyl])[N_Butyl_Phe] [Isovaleric Acid-L-T-H-[Dpa]-P-NMe[Lys(Ahx_Palm)]-N_Butyl_Phe], the “FPN IC50” value came out at 62.6 nM.
On to Isovaleryl-ETHFPAIK([γGlu-Myristoyl])FEPRSKGA[dK]-NH2 [Isovaleric Acid-E-T-H-F-P-A-I-[Lys(IsoGlu_C14_acid)]-F-E-P-R-S-K-G-A-[(D)Lys]-NH2], for which the “FPN IC50” value came out at 718 nM.
As for Isovaleryl-LTH[Dip]PK([βAla-Palmitoyl])[N_Butyl_Phe] [Isovaleric Acid-L-T-H-[Dpa]-P-[Lys(bAla_Palm)]-N_Butyl_Phe], the “FPN IC50” value was determined as 469 nM.
Regarding Isovaleryl-ETHFPAIK([γGlu-Myristoyl])FEPRSKGAK-NH2 [Isovaleric Acid-E-T-H-F-P-A-I-[Lys(IsoGlu_C14_acid)]-F-E-P-R-S-K-G-A-K-NH2], the “FPN IC50” value is 822 nM.
On to Isovaleryl-ETHFPAIK([γGlu-Myristoyl])FEPRSKG[dA]-NH2 [Isovaleric Acid-E-T-H-F-P-A-I-[Lys(IsoGlu_C14_acid)]-F-E-P-R-S-K-G-[(D)Ala]-NH2], for which the “FPN IC50” value stood at 5730 nM.
